{"source": "patent US20090311265A1", "molecular_target": "HA of BPL-inactivated virus preparation of strain A/New Caledonia/20/99 (H1N1) (influenza A virus A/New Caledonia/20/99 (H1N1))", "experiment": "ELISA, coated inactivated virus, IgG 5 µg/ml"}
{"substance": "CR3014 (antibody)", "values": [{"measurement": "OD 492 nm", "value": 0.09, "unit": "OD 492 nm"}]}
{"substance": "CR6261 (antibody)", "values": [{"measurement": "OD 492 nm", "value": 1.46, "unit": "OD 492 nm"}]}
